“Also recorded” adds a separate entry of the source.
B1: YKL-40 neutralizing antibody: isolated neutralizing antibody specifically binding chitinase-3-like protein-1 (YKL-40); VH SEQ ID NO: 7, VL SEQ ID NO: 8 (antibody, V domains shown)
VH: QIQLVQSGPELKKPGETVRISCKASGYTFPNYGMNWVKQAPGKGLKWMGWINTYTGEPTYTVDFKGQFAFSLETSASTAYLQINNLKNEDTATYFCARSFYGTNGFDYWGQGTTLTVSS
VL: NIVMTQSPKSMSMSVGERVTLSCKASENVGTYVSWYQQKPEQSPKLVIYGASNRYIGVPDRFTGSGSATDFTLTISSVEAEDLADYHCGQSYSYPPTFGGGTKLEIK
modifications: recombinant YKL-40 neutralizing antibody

Tests used:
[1] = test system: human ovarian cancer cell CA5171; details: for proportion of Annexin V/7-AAD-positive apoptosis: CA5171, 50 μg/mL YKL-40 neutralizing antibody and/or 2.5 nM paclitaxel, 37° C., 48 hours
Experimental: It is important to know whether the YKL-40 neutralizing antibody of the present disclosure can induce cell apoptosis after combining with human ovarian cell CA5171. In this experiment, two specific dyes “7-amino-actinomycin D” (7-AAD) and “Annexin V” are used in the flow cytometry analysis to detect if the YKL-40 neutralizing antibody induces the cell apoptosis. In addition, the combination treatment of the chemotherapy drug paclitaxel and the YKL-40 neutralizing antibody is also analyzed in this experiment.
The experiment procedure applied herein is, firstly, to treat human ovarian cancer cell CA5171 with a final concentration of 50 μg/mL YKL-40 neutralizing antibody and/or 2.5 nM paclitaxel, then culture them at 37° C. for 48 hours. The control group is treated with normal saline. After the culturing, the cells are collected and stained with 7-AAD and FITC-conjugated annexin V (FITC, Fluorescein isothiocyanate) dyes for 30 minutes. After staining, the cells are washed by using cytometer analysis solution (normal saline with a final concentration of 0.2% fetal bovine serum and 0.5% sodium azide), and then analyzed by flow cytometry.

[2] = test system: CA5171 ovarian cancer cells, which overexpress chitinase-3-like protein-1; test: Nano SPECT/CT bioimaging in tumor-carried mice; assay type: in vivo; details: tail vein injection
Excerpt: In order to verify these research results in a tumor-carried animal model, the CA5171 ovarian cancer cells, which overexpress chitinase-3-like protein-1, are inoculated in the left hind limb of the experiment animals. After the tumor volume grow to 200-300 mm3, use indium-111-DTPA-YKL-40 antibody complex as a radio-diagnostic drug for tumor mapping. The method of administration of diagnostic drugs is to inject the indium-111-DTPA-YKL-40 antibody complex by tail vein injection. Three tumor-carried mice are used as the animal model in both control and treatment groups, and the cross-sections of transverse, sagittal, and coronal are then taken at different time points such as 1, 4, 24 and 48 hours after administration. The tumor-carried mice of the control group are injected with indium-111-DTPA only, without YKL-40 antibody complex. […] The accumulation of the radioactive drug can at least last for 24 hours as shown in the results.

[3] = test system: human ovarian cancer cell CA5171; test: Binding ability of antibody to human ovarian cancer cell CA5171 by flow cytometry; assay type: cell-based
Experimental: When the YKL-40 neutralizing antibody of the present disclosure is isolated and purified, its binding ability to human ovarian cell CA5171 is then evaluated by flow cytometry. In this example, the antibody of the control group and YKL-40 neutralizing antibody are respectively added to the culture of the ovarian cell CA5171. After a period of culturing, the human ovarian cell CA5171 are then analyzed by flow cytometry. Please refer to FIGS. 1A and 1B. […] From the results, the binding ability of the control group antibody IgG is 28.69%, while the binding ability of the YKL-40 neutralizing antibody is as high as 71.57%.

Row | time the radioactive drug sustains in the abdominal organs [2] | Molecule | proportion of Annexin V/7-AAD-positive apoptosis [1] | cytotoxicity (in words) [1] | binding ability ([3]; human ovarian cell CA5171) | binding to CA5171 cells (in words) ([3]; versus control IgG antibody)
1 | – | CC(=O)O[C@H]1C(=O)[C@@]2(C)[C@H]([C@H](OC(=O)c3ccccc3)[C@]3(O)C[C@H](OC(=O)[C@H](O)[C@@H](NC(=O)c4ccccc4)c4ccccc4)C(C)=C1C3(C)C)[C@]1(OC(C)=O)CO[C@@H]1C[C@@H]2O [paclitaxel, reference compound] | 43.90%±0.35% | – | – | –
2 | 1 h | O=C([O-])CN(CCN(CC(=O)[O-])CC(=O)[O-])CCN(CC(=O)[O-])CC(=O)[O-].[111In+3].[H+].[H+] [indium-111-DTPA] | – | – | – | –
3 | – | B1 | 3.91±0.11% | not observed to be cytotoxic | 71.57% | stronger binding ability to CA5171 ovarian cells than the control group; also recorded: can significantly bind to human ovarian cancer cell CA5171

Reference: patent US12692324B2, “Anti-chitinase-3-like protein-1 (YKL-40) neutralizing antibody and uses thereof” (Institute of Nuclear Energy Research, Atomic Energy …, priority 2022, dated 2026)
